This passage reports IC50 results from paper PMC2710984 (International Journal of Peptide Research and Therapeutics, 2006).

Square brackets hold non-standard residues; d marks the D form. Ends that are not written are not given here. Gly(cPr) = N[C@H](C(=O)O)C1CC1; Chg = N[C@H](C(=O)O)C1CCCCC1; Pip = O=C(O)[C@@H]1CCCCN1; Abu = CC[C@H](N)C(=O)O; Aib = CC(C)(N)C(=O)O

The target of the assay is GST–BIR3 fusion protein (XIAP BIR3 domain). The assay is described as follows: FMAT bead-based fluorescence competition assay.
For the molecule AV[Pip]F-NH2 [AV–Pip–F (compound 21)], the concentration for half-maximal inhibition (IC50) (commonly the midpoint of a concentration-inhibition curve) worked out at 0.71 µM.
Next, [Abu]VPF-NH2 [Abu–VPF (compound 9)]: 0.12 µM.
In the case of [Gly(cPr)]VPF-NH2 [Cpg–VPF (compound 12)], the IC50 was more than 1.6 µM.
Next, [Chg]VPF-NH2 [Chx–VPF (compound 13)]: more than 1.6 µM; [Aib]VPF-NH2 [Dmg–VPF (compound 11)]: more than 1.6 µM; A[Gly(cPr)]PF-NH2 [A–Cpg–PF (compound 18)]: more than 1.6 µM.
